Measurements reported in the DeepSol protein solubility set.

Test: soluble on expression in E. coli; label from the status in PepcDB or PDB records

Row | Sequence | soluble on expression in E. coli
1 | MRSMNTHAVLQFLSGNGIAILQFFHQLILQGKTQDDLTRDYALDRAWVGSVMKLAKELFDPRPSPSRDECISVAKELGLGIEVLKAINPALGRLNKKASMTKDDLRLRLYREARGMTPAEAKAHANTRVVALNDACGATPRKPAVRISKSTDAAGQRHIHASLDDATASAVAEKLHAGARWLTKKTPSLSYSQAMAEIFAIAILDSPALGGRKRREGLILLPADGYTHRGNGMLATTDGSLIPAHKLAEHLLEEYGYAMLYALNDEGVPEPVDLYRTKRYANDKQRLMITADQLTCSHPDCHRLANNSHIHHCTAWERGGETNVKNLVAACATHNRRNDDDPERHKNGYFRRMPHSGCAGFQPADPSLPPRRTRVPFAAYSARVWACDHFGVTV | not soluble
2 | MRSMTLEQLRTASETGGVSSVTLKGQGGAFLVQINTRSGVAAILTKARNSEPRRFGNPAAALNVLREVGITIGQFDASEWNPDEREPVARSSDNRAKALHKAHEAAAYNEWLAAEIQEAIDDPRPGIPHDEVMARMDARIVRHKAAGAKRA | not soluble
3 | MRSPYLIGVFLAAGKSRRMGQNKLALPLKGENIGSLSLKTALSSRLDHVLVVERTEHASLEWIGAPYHAPPFQKRWSLHVCQDAEKGQGHSVSSGVRKAESMGADGIVILLADQPQLSVDHLNALVALAPESFAVSSFLGAFTPPIYFSSTCFPYVKGLKGDEGARRLLKSGQLGAGAVLEAKDSGELDDIDTPRGILEHHHHHH | not soluble
4 | MRSRVLWGAARWLWPRRAVGPARRPLSSGSPPLEELFARGGPLRTFLERQAGSEAHLKVRRPELLAVIKLLNEKEQELRETEHLLHDENEDLRKLAENEITLCQKEITQLKHQIILLLVPSEETDENDLILEVTAGVGGQEAMLFTSEIFDMYQQYAAFKRWHFETLEYFPSELGGLRHASASIGGSEAYRHMKFEGGVHRVQRVPKTEKQGRVHTSTMTVAILPQPTEINLVINPKDLRIDTKRASGAGGQHVNTTDSAVRIVHLPTGVVSECQQERSQLKNKELAMTKLRAKLYSMHLEEEINKRQNARKIQIGSKGRSEKIRTYNFPQNRVTDHRINKTLHDLETFMQGDYLLDELVQSLKEYADYESLVEIISQKV | soluble
5 | MRSYDFSPLYRATVGFDRIADLMDRVMTSEVAQPTYPPYNIEKTAENAYRISIAVAGFTPDELAVEVKENTLHVGARKAADEAERTYLHRGIATRAFERRFALADHVRVSGATHEHGMLHIDLVRETPEALKPRRIEIARGDLGGTRSIEAVKEPVEA | not soluble
6 | MRTAVIIPFYQREAGILSRALDSVDGQILPEGHSLTVFVIDDESPVSARSEVEGRQGKVPVRLIAQKNGGPGAARNAGLDAVAAEGFDHVAFLDSDDIWQPTHLADALDLLARGYDFHFCDHQRTDDDITYFERTPALRRMREERHAGVTVLDAEAPILAFDQPSIMAASVDTYLSQTSTVVVRQSFVETLRFDPRLRNAGEDQLFWLSLIAAGARTVVSWKMNVLCGRGVNVYFDAFDWKSTKVVDRTGYMLMFFHTVGRRLSLTASDRRTVADRIRRYRRAYSYLFLRALLQGRVPTLSLTWKLAALDPGLVPAMPLRFLAVLPNREAESLQWLEHHHHHH | not soluble
7 | MRTHTGKIPDHFVPRISMTEEQRRVVFMLNSLLLDYPEEGFVDKLNAVEAQLDVLPLPVAAHVVEFLDAARVAGLRAMQEAYVETFDQRRRCSLFLTYYAVGDTRQRGTAILTFRQTLQQLGFESERDELPDHLCVVLEAAALADSSLFDAATQVLSAHRDGIEVLRAALDNLDSPYRYLIMSLCQALPEIDEETANSYMELIRSGPPAEMVGIGTPLPFPTSQPDIH | not soluble
8 | MRVKTIMTQNPVTITLPATRNYALELFKKYKVRSFPVVNKEGKLVGIISVKRILVNPDEEQLAMLVKRDVPVVKENDTLKKAAKLMLEYDYRRVVVVDSKGKPVGILTVGDIIRRYFAKSEKYKGVEIEPYYQRYVSIVWEGTPLKAALKALLLSNSMALPVVDSEGNLVGIVDETDLLRDSEIVRIMKSTELAASSEEEWILESHPTLLFEKFELQLPNKPVAEIMTRDVIVATPHMTVHEVALKMAKYSIEQLPVIRGEGDLIGLIRDFDLLKVLVKSKA | soluble
9 | MRVLVTGGAGFIGSHIVEDLLARGLEVAVLDNLATGKRENVPKGVPFFRVDLRDKEGVERAFREFRPTHVSHQAAQASVKVSVEDPVLDFEVNLLGGLNLLEACRQYGVEKLVFASTGGAIYGEVPEGERAEETWPPRPKSPYAASKAAFEHYLSVYGQSYGLKWVSLRYGNVYGPRQDPHGEAGVVAIFAERVLKGLPVTLYARKTPGDEGCVRDYVYVGDVAEAHALALFSLEGIYNVGTGEGHTTREVLMAVAEAAGKAPEVQPAPPRPGDLERSVLSPLKLMAHGWRPKVGFQEGIRLTVDHFRGAV | soluble
10 | MRVRGIYATALVALALKKGYLLSDLSKTMLSRVEVPVSTRPPNITVKHGEESRDEIVIHAFPYEAGERFEADLLEEVGHAAVRRSLLGLRSVVDARAAEGCRAEGPGGVLIIVKGGECPQPGSMVRVTVVRSPPGSDVVEGRVGVELTGLTVRVMHPGSGVRISRHLTSEDAAKALKAVEASGIDLNQFSVHIRSGARLASEGDISDEIRRLAREAERLWREGPGGEPAVLSRGEYLSLVYLPSTAKHVMDGLRTSLYPTVNNHHSLKSWSSEAEGLLTDFAEEGVREGLWGGEAGDLIVRFISSRLVGRTAVVLHRRPDGETIRLGPFRVSSYRPSSGRGGEIVLERTFRSPGVYDGLGLERRPGDRGVTHVYMGDWLTIHEYYDKSGRLLGVYANINTPPEVGFQGLKYLDLLVDVVKRPGEEPETIDQGELEKACRSGLLTDRLCEEAARQAERASGLLQSRYP | not soluble
11 | MRYALAACLLLLAASSFVDAKKKKIADDELGELLDNIDADEEKKSVEPAKNPCEDHQCGWGKECVVGKKGEPTCECISKCPELDGDPMDKVCANNNQTFTSLCDLYRERCLCKRKSKECSKAFNAKVHLEYLGECKKLDECTEEHMAQFPERMADWLFQVMKELKKRRELHKLEWEELLSEAENDDEKKHVYPVIWKFCELDTKPHDKSVSHHELIPITAPVIPMESCIKPFLEGCDANNDGNISIKEWGKCLGLKEGEIQERC | not soluble
12 | MSAAAAPDTARSGRWRVDTDPERVERDLTCLVLTLVELVRQLVERQCVRRMDQGDLSDEQIETLGLTLMRLEEAMTELCERFDLSPSDLNLDLGPLGTLLPVD | not soluble
13 | MSAAASMFVRQFFHGTRADLSPGELIVVGYQSNFTTAAPLSWVYFSGTLDAAIWGAELAAGDAPQRIYVVEPTGPFEDDPNLTDKKFPGNPTLSYRSKHPLRIVAEMTKWQGHSPERVQQMKDGLARLSAEGAEIID | not soluble
14 | MSAEAAAVEVQANEAPIVAPIMYKVESSDGQVYEISDEAVKQSNTLSNLISTCVANDVASMDPIPITNVTGNIMKMVIEWCEKHKGETLPVEDDSVPKNITVPEWDTNFLKIDNDVLFDLIVASNFLDVPGLMSYACKMVANMAIGKSPDEMRVLFAIPTDEEDEAAEKAAKEKAEAEKKAITEKDAAEPSTSK | soluble
15 | MSAFQAFVVNKTETEFTAGVQTISMDDLPEGDVLVRVHYSSVNYKDGLASIPDGKIVKTYPFVPGIDLAGVVVSSQHPRFREGDEVIATGYEIGVTHFGGYSEYARLHGEWLVPLPKGLTLKEAMAIGTAGFTAALSIHRLEEHGLTPERGPVLVTGATGGVGSLAVSMLAKRGYTVEASTGKAAEHDYLRVLGAKEVLAREDVMAERIRPLDKQRWAAAVDPVGGRTLATVLSRMRYGGAVAVSGLTGGAEVPTTVHPFILRGVSLLGIDSVYCPMDLRLRIWERLAGDLKPDLERIAQEISLAELPQALKRILRGELRGRTVVRLA | soluble
16 | MSAGKIDVHGFEKETLFFKNIASGSKGNCTLIWDSTDLIVIDLGITMKKFRDSIKSLDLAGRSISLFISHEHSDHIGGVPTTSKYVDMDVYMRPALSGSFRRKTYEMDGSLVVGNFEIRAFEIPHDAADPVGFSVLWHNRKISVVSDLGKVTDRVIESIRNSDILAFESNHDVEMLRTGSYPEALKRRILSDHGHLSNEQSAEAISRVATDDMRIILTHLSQENNRPEIALNEVKSYLENRNVRYRSIETADQYTGSSLYTLER | not soluble
17 | MSAGTRTQQQPPPKQRHPFQPACRLWCPLSPPSVLPFCASTCRPPPQDRQVRQCGGRIALRVAISPLSSSHSVLDGISHLASRMSDHADIDEAARKRLRAEAPFVSPLPLPPPAAPLLPCDASHNGESAEAAGHILVASAPPHKEDSVASTLHTSAKEARFEGRCMPPSFHSLLGEYEVPEEAKDVEDLVGGHEDFSDLPEARREALLQSVRTLVKKAAGASSAEQLEHLRVKGSRLHGFKDTARKSELTAAYRQLVREGAIAENAVVEALLIRKKGKSHSGVLVVTVFMGPGEFSCPKDCHYCPNQPGIARSYLLKEPGVLRGFRNGWDPISQFYDRASALENNGHVVDKIELIILGGTFSFYPQRYAEEFMTASFYAANTYYDSAPLRPMRSLAEELTLNEGARCRIIGITAETRPDYISARELRRFRSLGITRVQLGIQHLDDDILNLINRDCPTAKTVVAIQRLLDAGFKVDAHWMPDLPGSSFEKDMELFETLFSAENESFQVDQWKVYPTATVPFTKISEWYAQGQYKPYAELDNGAYMVKLLVYIMEHCPYRIRLNRIIRDIPTTYIMGGEKRCNLRQVIEAEMRARHIRCKDIRERECKGNPVDRANTHLFTDEFRASEGTEFYLSVENKDRTQLYGHLRLRLRDDASREESNILPVLRGCALVRELHTYGKLIAVSQQNTGRETQHVGVGTQLMREAERIAKERGYHRMAVIAGVGVRRYYAKLGYRLEDTYMVKELDEQASAITEDQVVQDDDNENSAYSSFLSTIKSFFGFHKNTP | not soluble
18 | MSAIEVKNLVKKFHGQTVLHGIDLEVKPGEVVAIIGPSGSGKTTLLRSINLLEQPEAGTITVGDITIDTARSLSQQKSLIRQLRQHVGFVFQNFNLFPHRTVLENIIEGPVIVKGEPKEEATARARELLAKVGLAGKETSYPRRLSGGQQQRVAIARALAMRPEVILFDEPTSALDPELVGEVLNTIRQLAQEKRTMVIVTHEMSFARDVADRAIFMDQGRIVEQGAAKALFADPEQPRTRQFLEKFLLQ | soluble
19 | MSAIEVTADAASTWDWPLQHNDGVVKVHNTKEKFEVGLDVQFFTPKEIEVKVSGQELLIHCRHETRSDNHGTVAREINRAYKLPDDVDVSTVKSHLATRGVLTITASKKA | soluble
20 | MSAKDFLVELGTEELPPKALNSLGEAFLSGIEKGLKAAGLSYAAARFYAAPRRLAVLVEQLAVQQPDRTVNLDGPPLQAAFDASGNPTQAALGFAKKCGVDLQQIDKSGPKLRFIQTIAGQPAAGLLPGIVEASLNELPIPKRMRWAARREEFVRPTQWLVMLFGDDVVECEILAQKAGRESRGHRFHNPDNVRISSPAAYLEDLRGAHVLADFAERRELIAKRVAELAAEQQGSAIVPPSLLDEVTALVEWPVPLVCSFEERFLEVPQEALITTMQDNQKYFCLLDANGKLLPRFITVANVESKAPENIVSGNEKVVRPRLTDAEFFFKQDKKQPLESFNERLRNVVFQAQLGTVFEKAQRVSGLAAYIAERIGGNAQNASRAGILSKCDLATEMVGEFPEMQGIAGYYYATHGGEAEDVALALNEQYMPRGAGAELPSTLTGAAVAVADKLDTLVGIFGIGMLPTGSKDPYALRRAALGVLRILIEKQLDLDLVAAVNAAVEQYGDKVKAAGLAEQVLDFVFDRLRARYEDEGVDVAVYQSVRALKPSSPLDFDQRVQAVQAFRQLPEAEALAAANKRVSNILAKSEDEVPPNVDASLLVEAAEKALGSAVANAESEVAPLAAARDYRAALARLAALREPVDTFFADVMVNVDDAAVRANRYALLAKLRGSFLGVADIS | not soluble
